# Results from EP2468767B1 (dated 2007).
# B1: IR485 (human insulin receptor residues 1-485 with enterokinase site and c-myc tag) (receptor)
# chain: HLYPGEVCPGMDIRNNLTRLHELENCSVIEGHLQILLMFKTRPEDFRDLSFPKLIMITDYLLLFRVYGLESLKDLFPNLTVIRGSRLFFNYALVIFEMVHLKELGLYNLMNITRGSVRIEKNNELCYLATIDWSRILDSVEDNYIVLNKDDNEECGDICPGTAKGKTNCPATVINGQFVERCWTHSHCQKVCPTICKSHGCTAEGLCCHSECLGNCSQPDDPTKCVACRNFYLDGRCVETCPPPYYHFQDWRCVNFSFCQDLHHKCKNSRRQGCHQYVIHNNKCIPECPSGYTMNSSNLLCTPCLGPCPKVCHLLEGEKTIDSVTSAQELRGCTVINGSLIINIRGGNNLAAELEANLGLIEEISGYLKIRRSYALVSLSFFRKLRLIRGETLEIGNYSFYALDNQNLRQLWDWSKHNLTITQGKLFFHYNPKLCLSEIHKMEEVSGTKGRQERNDIALKTNGDQASCENELLKFSYIRTSFDKISDDDDKEQKLISEEDLN
# Molecular target: the molecule itself
# Assay: gel filtration on Superdex 200 HR
protein,measurement,value
B1,binding result,binds
